B1: RNF220: human RING type E3 ligase expressed from lentiviral vector (protein, UniProt Q5VTB9 1-566, looked up)
E3 ubiquitin-protein ligase …: MDLHRAAFKMENSSYLPNPLASPALMVLASTAEASRDASIPCQQPRPFGVPVSVDKDVHIPFTNGSYTFASMYHRQGGVPGTFANRDFPPSLLHLHPQFAPPNLDCTPISMLNHSGVGAFRPFASTEDRESYQSAFTPAKRLKNCHDTESPHLRFSDADGKEYDFGTQLPSSSPGSLKVDDTGKKIFAVSGLISDREASSSPEDRNDRCKKKAAALFDSQAPICPICQVLLRPSELQEHMEQELEQLAQLPSSKNSLLKDAMAPGTPKSLLLSASIKREGESPTASPHSSATDDLHHSDRYQTFLRVRANRQTRLNARIGKMKRRKQDEGQREGSCMAEDDAVDIEHENNNRFEEYEWCGQKRIRATTLLEGGFRGSGFIMCSGKENPDSDADLDVDGDDTLEYGKPQYTEADVIPCTGEEPGEAKEREALRGAVLNGGPPSTRITPEFSKWASDEMPSTSNGESSKQEAMQKTCKNSDIEKITEDSAVTTFEALKARVRELERQLSRGDRYKCLICMDSYSMPLTSIQCWHVHCEECWLRTLGAKKLCPQCNTITAPGDLRRIYL
B2: PCGF6: human RING type E3 ligase expressed from lentiviral vector (protein, UniProt Q9BYE7 1-350, looked up)
Polycomb group RING finger …: MEGVAVVTAGSVGAAKTEGAAALPPPPPVSPPALTPAPAAGEEGPAPLSETGAPGCSGSRPPELEPERSLGRFRGRFEDEDEELEEEEELEEEEEEEEEDMSHFSLRLEGGRQDSEDEEERLINLSELTPYILCSICKGYLIDATTITECLHTFCKSCIVRHFYYSNRCPKCNIVVHQTQPLYNIRLDRQLQDIVYKLVINLEEREKKQMHDFYKERGLEVPKPAVPQPVPSSKGRSKKVLESVFRIPPELDMSLLLEFIGANEGTGHFKPLEKKFVRVSGEATIGHVEKFLRRKMGLDPACQVDIICGDHLLEQYQTLREIRRAIGDAAMQDGLLVLHYGLVVSPLKIT
B3: ZNRF1: human RING type E3 ligase expressed from lentiviral vector (protein, UniProt Q8ND25 2-227, looked up)
E3 ubiquitin-protein ligase …: GGKQSTAARSRGPFPGVSTDDSAVPPPGGAPHFGHYRTGGGAMGLRSRSVSSVAGMGMDPSTAGGVPFGLYTPASRGTGDSERAPGGGGSASDSTYAHGNGYQETGGGHHRDGMLYLGSRASLADALPLHIAPRWFSSHSGFKCPICSKSVASDEMEMHFIMCLSKPRLSYNDDVLTKDAGECVICLEELLQGDTIARLPCLCIYHKSCIDSWFEVNRSCPEHPAD
modifications: lentiviral expression
notes: human RING type E3 ligase expressed from lentiviral vector
B4: RNF214: human RING type E3 ligase expressed from lentiviral vector (protein, UniProt Q8ND24 2-703, looked up)
RING finger protein 214: AASEVAGVVANAPSPPESSSLCASKSDEGLPDGLSTKDSAQKQKNSPLLSVSSQTITKENNRNVHLEHSEQNPGSSAGDTSAAHQVVLGENLIATALCLSGSGSQSDLKDVASTAGEEGDTSLRESLHPVTRSLKAGCHTKQLASRNCSEEKSPQTSILKEGNRDTSLDFRPVVSPANGVEGVRVDQDDDQDSSSLKLSQNIAVQTDFKTADSEVNTDQDIEKNLDKMMTERTLLKERYQEVLDKQRQVENQLQVQLKQLQQRREEEMKNHQEILKAIQDVTIKREETKKKIEKEKKEFLQKEQDLKAEIEKLCEKGRREVWEMELDRLKNQDGEINRNIMEETERAWKAEILSLESRKELLVLKLEEAEKEAELHLTYLKSTPPTLETVRSKQEWETRLNGVRIMKKNVRDQFNSHIQLVRNGAKLSSLPQIPTPTLPPPPSETDFMLQVFQPSPSLAPRMPFSIGQVTMPMVMPSADPRSLSFPILNPALSQPSQPSSPLPGSHGRNSPGLGSLVSPHGPHMPPAASIPPPPGLGGVKASAETPRPQPVDKLEKILEKLLTRFPQCNKAQMTNILQQIKTARTTMAGLTMEELIQLVAARLAEHERVAASTQPLGRIRALFPAPLAQISTPMFLPSAQVSYPGRSSHAPATCKLCLMCQKLVQPSELHPMACTHVLHKECIKFWAQTNTNDTCPFCPTLK
B5: RNF130: human RING type E3 ligase expressed from lentiviral vector (protein, UniProt Q86XS8 28-419, looked up)
E3 ubiquitin-protein ligase …: DNASQEYYTALINVTVQEPGRGAPLTFRIDRGRYGLDSPKAEVRGQVLAPLPLHGVADHLGCDPQTRFFVPPNIKQWIALLQRGNCTFKEKISRAAFHNAVAVVIYNNKSKEEPVTMTHPGTGDIIAVMITELRGKDILSYLEKNISVQMTIAVGTRMPPKNFSRGSLVFVSISFIVLMIISSAWLIFYFIQKIRYTNARDRNQRRLGDAAKKAISKLTTRTVKKGDKETDPDFDHCAVCIESYKQNDVVRILPCKHVFHKSCVDPWLSEHCTCPMCKLNILKALGIVPNLPCTDNVAFDMERLTRTQAVNRRSALGDLAGDNSLGLEPLRTSGISPLPQDGELTPRTGEINIAVTKEWFIIASFGLLSALTLCYMIIRATASLNANEVEWF
B6: RNF113: human RING type E3 ligase expressed from lentiviral vector (protein, UniProt O15541 2-343, looked up)
E3 ubiquitin-protein ligase …: AEQLSPGKAVDQVCTFLFKKPGRKGAAGRRKRPACDPEPGESGSSSDEGCTVVRPEKKRVTHNPMIQKTRDSGKQKAAYGDLSSEEEEENEPESLGVVYKSTRSAKPVGPEDMGATAVYELDTEKERDAQAIFERSQKIQEELRGKEDDKIYRGINNYQKYMKPKDTSMGNASSGMVRKGPIRAPEHLRATVRWDYQPDICKDYKETGFCGFGDSCKFLHDRSDYKHGWQIERELDEGRYGVYEDENYEVGSDDEEIPFKCFICRQSFQNPVVTKCRHYFCESCALQHFRTTPRCYVCDQQTNGVFNPAKELIAKLEKHRATGEGGASDLPEDPDEDAIPIT
B7: RNF4: human RING type E3 ligase expressed from lentiviral vector (protein, UniProt P78317 1-190, looked up)
E3 ubiquitin-protein ligase …: MSTRKRRGGAINSRQAQKRTREATSTPEISLEAEPIELVETAGDEIVDLTCESLEPVVVDLTHNDSVVIVDERRRPRRNARRLPQDHADSCVVSSDDEELSRDRDVYVTTHTPRNARDEGATGLRPSGTVSCPICMDGYSEIVQNGRLIVSTECGHVFCSQCLRDSLKNANTCPTCRKKINHKRYHPIYI
modifications: lentiviral expression
notes: as for B3
B8: RNF38: human RING type E3 ligase expressed from lentiviral vector (protein, UniProt Q9H0F5 1-515, looked up)
E3 ubiquitin-protein ligase …: MACKISPGANSASLPGHPNKVICERVRLQSLFPLLPSDQNTTVQEDAHFKAFFQSEDSPSPKRQRLSHSVFDYTSASPAPSPPMRPWEMTSNRQPPSVRPSQHHFSGERCNTPARNRRSPPVRRQRGRRDRLSRHNSISQDENYHHLPYAQQQAIEEPRAFHPPNVSPRLLHPAAHPPQQNAVMVDIHDQLHQGTVPVSYTVTTVAPHGIPLCTGQHIPACSTQQVPGCSVVFSGQHLPVCSVPPPMLQACSVQHLPVPYAAFPPLISSDPFLIHPPHLSPHHPPHLPPPGQFVPFQTQQSRSPLQRIENEVELLGEHLPVGGFTYPPSAHPPTLPPSAPLQFLTHDPLHQEVSFGVPYPPFMPRRLTGRSRYRSQQPIPPPPYHPSLLPYVLSMLPVPPAVGPTFSFELDVEDGEVENYEALLNLAERLGEAKPRGLTKADIEQLPSYRFNPNNHQSEQTLCVVCMCDFESRQLLRVLPCNHEFHAKCVDKWLKANRTCPICRADASEVHRDSE
B9: CHFR: human RING type E3 ligase expressed from lentiviral vector (protein, UniProt Q96EP1 1-664, looked up)
E3 ubiquitin-protein ligase …: MERPEEGKQSPPPQPWGRLLRLGAEEGEPHVLLRKREWTIGRRRGCDLSFPSNKLVSGDHCRIVVDEKSGQVTLEDTSTSGTVINKLKVVKKQTCPLQTGDVIYLVYRKNEPEHNVAYLYESLSEKQGMTQESFEANKENVFHGTKDTSGAGAGRGADPRVPPSSPATQVCFEEPQPSTSTSDLFPTASASSTEPSPAGRERSSSCGSGGGGISPKGSGPSVASDEVSSFASALPDRKTASFSSLEPQDQEDLEPVKKKMRGDGDLDLNGQLLVAQPRRNAQTVHEDVRAAAGKPDKMEETLTCIICQDLLHDCVSLQPCMHTFCAACYSGWMERSSLCPTCRCPVERICKNHILNNLVEAYLIQHPDKSRSEEDVQSMDARNKITQDMLQPKVRRSFSDEEGSSEDLLELSDVDSESSDISQPYVVCRQCPEYRRQAAQPPHCPAPEGEPGAPQALGDAPSTSVSLTTAVQDYVCPLQGSHALCTCCFQPMPDRRAEREQDPRVAPQQCAVCLQPFCHLYWGCTRTGCYGCLAPFCELNLGDKCLDGVLNNNSYESDILKNYLATRGLTWKNMLTESLVALQRGVFLLSDYRVTGDTVLCYCCGLRSFRELTYQYRQNIPASELPVAVTSRPDCYWGRNCRTQVKAHHAMKFNHICEQTRFKN
B10: MARCH5: human RING type E3 ligase expressed from lentiviral vector (protein, UniProt Q9NX47 1-278, looked up)
E3 ubiquitin-protein ligase …: MPDQALQQMLDRSCWVCFATDEDDRTAEWVRPCRCRGSTKWVHQACLQRWVDEKQRGNSTARVACPQCNAEYLIVFPKLGPVVYVLDLADRLISKACPFAAAGIMVGSIYWTAVTYGAVTVMQVVGHKEGLDVMERADPLFLLIGLPTIPVMLILGKMIRWEDYVLRLWRKYSNKLQILNSIFPGIGCPVPRIPAEANPLADHVSATRILCGALVFPTIATIVGKLMFSSVNSNLQRTILGGIAFVAIKGAFKVYFKQQQYLRQAHRKILNYPEQEEA
B11: MUL1: human RING type E3 ligase expressed from lentiviral vector (protein, UniProt Q969V5 1-352, looked up)
Mitochondrial ubiquitin …: MESGGRPSLCQFILLGTTSVVTAALYSVYRQKARVSQELKGAKKVHLGEDLKSILSEAPGKCVPYAVIEGAVRSVKETLNSQFVENCKGVIQRLTLQEHKMVWNRTTHLWNDCSKIIHQRTNTVPFDLVPHEDGVDVAVRVLKPLDSVDLGLETVYEKFHPSIQSFTDVIGHYISGERPKGIQETEEMLKVGATLTGVGELVLDNNSVRLQPPKQGMQYYLSSQDFDSLLQRQESSVRLWKVLALVFGFATCATLFFILRKQYLQRQERLRLKQMQEEFQEHEAQLLSRAKPEDRESLKSACVVCLSSFKSCVFLECGHVCSCTECYRALPEPKKCPICRQAITRVIPLYNS
modifications: lentiviral expression
notes: as for B3

Tested on: coxsackievirus B3 (CVB3-GFP)
Format: cell-based
Conditions: HeLa cells, replicate R1; for Percent Infected R1: GFP-positive cells within RFP-positive gate

Molecule	Percent Infected R1 [%]	Z score R1
B1	96.6	0.1
B2	94.6	0.08
B3	95.8	0.09
B4	93.9	0.067
B5	91.4	0.04
B6	92	0.043
B7	93.3	0.06
B8	88.2	−0.01
B9	87.2	−0.02
B10	91.5	0.04
B11	80.1	−0.11

— patent US12104181B2, “Compositions and methods for treating viral infections targeting TRIM7” (THE BOARD OF REGENTS OF THE UNIVERSITY OF TEXAS SYSTEM, priority 2021, dated 2024)
